Test results published in US20150232570A1 (ONCOMED PHARMACEUTICALS, published 2015).

T1: recombinant human NOTCH1 protein (human, UniProt P46531 1426-1731, limits assumed)
T1 construct: NOTCH1 proteins'
T1 sequence (looked up): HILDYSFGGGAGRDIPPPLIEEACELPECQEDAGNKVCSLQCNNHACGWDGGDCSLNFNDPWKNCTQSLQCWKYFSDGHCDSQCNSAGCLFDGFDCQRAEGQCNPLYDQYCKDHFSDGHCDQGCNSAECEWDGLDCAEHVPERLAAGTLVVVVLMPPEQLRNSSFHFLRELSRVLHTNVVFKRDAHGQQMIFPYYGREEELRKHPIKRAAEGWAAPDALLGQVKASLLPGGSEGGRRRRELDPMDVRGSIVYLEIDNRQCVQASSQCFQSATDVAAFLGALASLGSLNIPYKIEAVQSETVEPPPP


Target: T1, recombinant human NOTCH1 protein
Assay: SPR (Biacore 2000), NOTCH1 protein amine-coupled to chip, IgG injected
Procedure: The affinities for human and mouse NOTCH11 were determined using a Biacore 2000 instrument. Briefly, recombinant human and mouse NOTCH1 proteins were immobilized on a CMS chip using standard amine based chemistry (NHS/EDC). Different antibody concentrations were injected over the protein surfaces and kinetic data were collected over time. The data was fit using the simultaneous global fit equation to yield dissociation constants (KD, nM) for each NOTCH1 protein (Table 2).

Kd	Binder
2.86 nM	murine monoclonal antibody 52M51 (antibody, mouse IgG1, V domains shown, Mouse antibody purified from hybridoma supernatant; also called 52M51 anti-NOTCH1 antibody; ATCC PTA-9405) VH: QVQLQQSGAELMKPGASVKISCKAAGYTMRGYWIEWIKQRPGHGLEWIGQILPGTGRTNYNEKFKGKATFTADTSSNTANMQLSSLTSEDSAVYYCARFDGNYGYYAMDYWGQGSSVTVSS VL: QAVVTQESALTTSPGETVTLTCRSSTGAVTTSNYANWVQEKPDHLFTGLIGGTNNRAPGVPARFSGSLIGDKAALTITGAQTEDEAIYFCALWYSNHWVFGGGTKLTVLG
4.33 nM	humanized antibody 52M51-H4L3 (antibody, human IgG2, lambda, V domains shown, Human IgG2 heavy chain and lambda (IgLC1) light chain; also called OMP-52M51; ATCC PTA-9549) VH: QVQLVQSGAEVKKPGASVKISCKVSGYTLRGYWIEWVRQAPGKGLEWIGQILPGTGRTNYNEKFKGRVTMTADTSTDTAYMELSSLRSEDTAVYYCARFDGNYGYYAMDYWGQGTTVTVSS VL: SQAVVTQEPSLTVSPGGTVTLTCRSSTGAVTTSNYANWFQQKPGQAPRTLIGGTNNRAPGVPARFSGSLLGGKAALTLSGAQPEDEAEYYCALWYSNHWVFGGGTKLTVLG
7.35 nM	humanized antibody 52M51-H4L4 (antibody, human IgG2, lambda, V domains shown, Human IgG2 heavy chain and lambda (IgLC1) light chain) VH: QVQLVQSGAEVKKPGASVKISCKVSGYTLRGYWIEWVRQAPGKGLEWIGQILPGTGRTNYNEKFKGRVTMTADTSTDTAYMELSSLRSEDTAVYYCARFDGNYGYYAMDYWGQGTTVTVSS VL: SQTVVTQEPSFSVSPGGTVTLTCRSSTGAVTTSNYANWYQQTPGQAPRTLIGGTNNRAPGVPDRFSGSILGNKAALTITGAQADDESDYYCALWYSNHWVFGGGTKLTVLG
